Results reported in patent US9482663.

Biological target: Anti-CRP antibodies (polyclonal)
Assay: SPR (Spreeta chip), anti-CRP antibodies injected over OM layer with Z-domain on gold

Z-domain of protein A autodisplayed on the E. coli outer membrane as a fusion protein of AIDA-I (from UniProt P38507 212-269; Q03155 840-1286)
SPR signal: 1.1 A.U
